According to patent publication US20240287190A1 (THERANOTICS, published 2024):
Where two headings read alike, the source gives them in different places.

How the values were obtained:
[1] = biological target: T1, recombinant human TGFβ1 protein (R&D Systems, Cat #7754-BH-025/CF) (human, UniProt P01137 279-390); assay: bridging ELISA on plate-coated TGFβ1, detected with His-tag human B7-H3; paragraph 158 says the mono antibodies are not bound to TGFβ1
T1 construct: Bought protein

[2] = biological target: T1, recombinant human TGFβ1 protein (R&D …); assay: as above; remark: listed apart in the source

T1 sequence (P01137 279-390 limits assumed): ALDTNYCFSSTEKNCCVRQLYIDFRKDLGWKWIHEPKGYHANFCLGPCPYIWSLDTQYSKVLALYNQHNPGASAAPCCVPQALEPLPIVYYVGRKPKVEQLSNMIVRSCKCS

binding result [1]	binding result [2]	Binder
no binding		#6 (mono) B7-H3 mono antibody free of TGFβ binding portion (antibody, human IgG1, N297A, V domains shown) VH: EVQLLESGGGLVQPGGSLRLSCAASGFTFSTYAISWVRQAPGKGLEWVSSIYYSGYTHYNPSLESRFTISRDNSKNTLYLQMNSLRAEDTAVYYCARGYSGWMDVWGQGTLVTVSS VL: QSVLTQPPSASGTPGQRVTISCGGNNIGSKSVHWYQQLPGTAPKLLIYDNNKRPSGVPNRFSGSKSGTSASLAISGLRSEDEADYYCAAWDDSLNVPVFGGGTKLTVL
no binding		#9 (mono) B7-H3 mono antibody free of TGFβ binding portion (antibody, human IgG1, N297A, V domains shown) VH: EVQLLESGGGLVQPGGSLRLSCAASGFTFSSYAMNWVRQAPGKGLEWVSTISGSGGQTYYADSVKGRFTISRDNSKNTLYLQMNSLRAEDTAVYYCARWRSIWAFDYWGQGTLVTVSS VL: QSVLTQPPSASGTPGQRVTISCSDNNIGSKSVHWYQQLPGTAPKLLIYDNNKRPSGVPDRFSGSKSGTSASLAISGLRSEDEADYYCGTWDDSLSGPVFGGGTKLTVL
no binding		#8 (mono) B7-H3 mono antibody free of TGFβ binding portion (antibody, human IgG1, N297A, V domains shown) VH: EVQLLESGGGLVQPGSSLRLSCAASGFTFSSYWISWVRQAPGKGLEWVSEISPSGNTNYNPSLKSRFTISRDNSKNTLYLQMNSLRAEDTAVYYCAREVGDLLDYWGQGTLVTVSS VL: QSVLTQPPSASGTPGQRVTISCSGSNIGNNYVSWYQQLPGTAPKLLIYQDSKRPSGVPDRFSGSKSGTSASLAISGLRSEDEADYYCLVWDRSSDHFVFGGGTKLTVL
no binding		#7 (mono) B7-H3 mono antibody free of TGFβ binding portion (antibody, human IgG1, N297A, V domains shown) VH: EVQLLESGGGLVQPGGSLRLSCAASGFTFSNFWIGWVRQAPGKGLEWVSWINPPGSITSYADSVKGRFTISRDNSKDTLYLQMNSLRAEDTAVYYCAREVGDVLDYWGQGTLVTVSS VL: QSVLTQPPSASGTPGQRVTISCTGTSSDIGRYNYVSWYQQLPGTAPKLLIYRNTQRPSGVPDRFSGSKSGTSASLAISGLRSEDEADYYCGTWDSSLNAYVFGGGTKLTVL
	no binding	#5 (mono) B7-H3 mono antibody free of TGFβ binding portion (antibody, human IgG1, N297A, V domains shown) VH: EVQLLESGGGLVQPGGSLRLSCAASGFTFSTYAMSWVRQAPGKGLEWVSAISGSGGSTLYADSVKGRFTISRDNSKNTLYLQMNSLRAEDTAVYYCARGGSATWAFDLWGQGTLVTVSS VL: QSVLTQPPSASGTPGQRVTISCSGSSSNIGSNYVYWYQQLPGTAPKLLIYRNNQRPSGVPDRFSGSKSGTSASLAISGLRSEDEADYYCGTWDSSLSGVVFGGGTKLTVL
